From article PMC3784471 (PLoS Pathogens, 2013) come the findings set out here.

The target of the assay is T1, Hendra virus nucleoprotein C-terminal domain N_(TAIL) (residues 401-532) (Hendra virus, UniProt O89339 401-532).
T1 sequence: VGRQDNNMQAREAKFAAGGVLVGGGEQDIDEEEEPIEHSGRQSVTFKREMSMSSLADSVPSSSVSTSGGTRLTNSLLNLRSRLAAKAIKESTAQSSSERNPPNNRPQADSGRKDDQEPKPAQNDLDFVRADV
Put plainly: NMR titration; […]) ([…]); 298 K; […], pH 6.0. As to conditions: both partners purified.

Ends that are not written are not given here.

B1: Hendra virus phosphoprotein X domain (XD, residues 654-707), 13C,15N labeled, without hexahistidine tag (domain or fragment)
chain: ADDASKDVVRTMIRTHIKDRELRSELMDYLNRAETDEEVQEVANTVNDIIDGNI
modifications: also: 13C,15N labeled
Regarding B1, the binding result is “binds”.
